According to patent publication US20250326840A1 (QURE BIOTECHNOLOGY SHANGHAI, published 2025):
Residue numbers refer to the chain shown, from its start. Numbers in names are those of the source.

T1: QP271 (rhesus SIRPα1-flag-his T-557-28) (rhesus monkey)
T1 construct: also called rhesus monkey SIRPα (QP271); monkeySIRPα1-flag-his
T1 chain: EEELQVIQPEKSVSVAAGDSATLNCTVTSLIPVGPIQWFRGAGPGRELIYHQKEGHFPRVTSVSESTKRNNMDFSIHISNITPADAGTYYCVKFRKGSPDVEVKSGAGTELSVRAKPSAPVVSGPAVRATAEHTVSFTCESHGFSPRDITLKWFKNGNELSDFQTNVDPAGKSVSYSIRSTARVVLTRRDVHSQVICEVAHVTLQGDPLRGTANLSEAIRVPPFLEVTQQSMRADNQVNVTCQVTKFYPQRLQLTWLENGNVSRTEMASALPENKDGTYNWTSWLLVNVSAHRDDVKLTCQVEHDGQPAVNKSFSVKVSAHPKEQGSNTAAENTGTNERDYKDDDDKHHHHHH

T2: QP273 (cynoSIRPα2-flag-his T-557-14) (cynomolgus)
T2 construct: also called cynomolgus SIRPα (QP273)
T2 chain: T1 chain with D19E, V27A, A42V, H51S, S62P, E65D, S66P, H77R, V103L

T3: QP098 (cyno SIRPα (I7G9Z7) ECD(E31-R369)-flag-his) (cynomolgus)
T3 construct: the construct carries flag and his tags; also called cynoSIRPα (ECD); cynomolgus SIRPα
T3 chain: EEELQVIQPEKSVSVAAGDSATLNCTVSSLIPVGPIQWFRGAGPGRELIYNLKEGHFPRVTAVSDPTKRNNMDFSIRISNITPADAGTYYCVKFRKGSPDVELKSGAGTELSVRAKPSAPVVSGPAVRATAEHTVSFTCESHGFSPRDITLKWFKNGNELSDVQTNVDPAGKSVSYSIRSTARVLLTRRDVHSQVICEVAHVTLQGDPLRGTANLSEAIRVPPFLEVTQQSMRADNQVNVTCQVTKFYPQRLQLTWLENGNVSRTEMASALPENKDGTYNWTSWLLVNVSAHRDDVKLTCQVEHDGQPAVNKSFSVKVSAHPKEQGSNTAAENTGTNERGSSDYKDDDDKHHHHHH

T4: QP100 (cyno SIRPα (G7PGS8) ECD(E29-R368)-flag-his) (cynomolgus)
T4 construct: the construct carries flag and his tags; also called cynoSIRPα-flag-his; Cynomolgus SIRPα (QP100)
T4 chain: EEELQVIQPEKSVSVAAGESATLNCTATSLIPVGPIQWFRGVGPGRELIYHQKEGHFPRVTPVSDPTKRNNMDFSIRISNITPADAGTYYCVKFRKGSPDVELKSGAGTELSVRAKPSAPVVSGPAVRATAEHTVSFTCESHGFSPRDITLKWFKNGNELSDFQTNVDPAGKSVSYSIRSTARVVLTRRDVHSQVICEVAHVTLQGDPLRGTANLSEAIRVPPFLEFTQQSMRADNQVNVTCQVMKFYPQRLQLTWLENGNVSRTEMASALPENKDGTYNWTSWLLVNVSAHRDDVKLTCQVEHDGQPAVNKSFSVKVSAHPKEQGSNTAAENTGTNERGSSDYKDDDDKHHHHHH

B1: QP2561586 (antibody, human IgG4, V domains shown)
VH: QVQLVQSGAEVKKPGASVKVSCKASGYTFTNYWINWVRQAPGQGLEWIAMIDPSDSETHYNQIFKDRATLTTDTSTSTAYMELRSLRSDDTAVYYCAMDYGSLYAMDYWGRGTLVTVSS
VL: DIVLTQSPDSLAVSLGERATINCRASKSVSSSGYNYIFWYQQKPGQPPKLLIYLASNLDSGVPDRFSGSGSGTDFTLTISSLQAEDVAVYYCQESRELPTFGQGTKLEIK
notes: Human IgG4 heavy constant region and kappa CL
B2: QP2561770 (antibody, human IgG4, V domains shown)
VH: B1 VH
VL: B1 VL with K27Q, S30R, Y36W, L58R
notes: as for B1
B3: QP2561589 (antibody, human IgG4, V domains shown)
VH: B1 VH
VL: B1 VL with R96W
notes: as for B1
B4: QP2561581 (antibody, human IgG4, V domains shown)
VH: B1 VH
VL: B1 VL with S60P, E94H
notes: as for B1
B5: QP32700623 (bispecific antibody, human IgG1, kappa, L234A L235A)
heavy: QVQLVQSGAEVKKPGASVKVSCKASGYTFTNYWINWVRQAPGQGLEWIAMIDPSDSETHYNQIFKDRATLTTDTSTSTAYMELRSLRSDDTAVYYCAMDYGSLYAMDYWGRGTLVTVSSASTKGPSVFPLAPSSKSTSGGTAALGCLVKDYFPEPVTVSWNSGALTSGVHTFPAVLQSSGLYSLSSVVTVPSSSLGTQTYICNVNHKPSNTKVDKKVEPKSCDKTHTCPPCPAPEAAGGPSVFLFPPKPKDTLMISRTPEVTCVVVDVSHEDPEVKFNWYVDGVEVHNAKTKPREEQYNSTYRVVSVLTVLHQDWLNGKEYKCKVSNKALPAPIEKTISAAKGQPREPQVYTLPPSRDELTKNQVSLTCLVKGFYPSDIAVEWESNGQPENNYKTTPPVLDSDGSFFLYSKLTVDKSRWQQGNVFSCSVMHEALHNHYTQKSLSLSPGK
light: EVQLLESGGGLVQPGGSLRLSCAASGFTLDDYAIGWFRQAPGKGREGVSCISKSGETTFFVESVKDRFTISRDNSKNTLYLQMNSLRAEDTAVYYCATGSWCTVGSMSRQFYRQFFHSWGQGTLVTVSSGGGGSDIVLTQSPDSLAVSLGERATINCRASQSVRSSGYNWIFWYQQKPGQPPKLLIYLASNRDSGVPDRFSGSGSGTDFTLTISSLQAEDVAVYYCQHSRELPTFGQGTKLEIKRTVAAPSVFIFPPSDEQLKSGTASVVCLLNNFYPREAKVQWKVDNALQSGNSQESVTEQDSKDSTYSLSSTLTLSKADYEKHKVYACEVTHQGLSSPVTKSFNRGEC
notes: Anti-PD-L1 VHH-G4S fused to the N-terminus of the light chain
B6: QP06260279 (bispecific antibody, human IgG1, kappa, L234A L235A)
heavy: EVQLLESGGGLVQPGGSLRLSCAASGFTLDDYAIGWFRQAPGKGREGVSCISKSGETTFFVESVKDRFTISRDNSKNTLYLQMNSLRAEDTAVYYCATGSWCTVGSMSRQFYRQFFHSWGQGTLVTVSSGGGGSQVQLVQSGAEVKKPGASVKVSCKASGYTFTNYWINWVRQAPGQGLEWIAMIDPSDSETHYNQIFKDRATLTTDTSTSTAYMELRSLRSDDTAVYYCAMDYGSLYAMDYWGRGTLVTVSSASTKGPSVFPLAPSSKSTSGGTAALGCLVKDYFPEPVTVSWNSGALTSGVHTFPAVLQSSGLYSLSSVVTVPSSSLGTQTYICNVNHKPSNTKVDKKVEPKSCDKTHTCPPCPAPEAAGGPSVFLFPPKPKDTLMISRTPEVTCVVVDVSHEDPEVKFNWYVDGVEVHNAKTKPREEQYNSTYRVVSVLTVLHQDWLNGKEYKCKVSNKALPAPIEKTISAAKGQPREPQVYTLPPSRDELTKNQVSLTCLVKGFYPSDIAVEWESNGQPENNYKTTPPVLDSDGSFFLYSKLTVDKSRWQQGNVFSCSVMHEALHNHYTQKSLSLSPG
light: DIVLTQSPDSLAVSLGERATINCRASQSVRSSGYNWIFWYQQKPGQPPKLLIYLASNRDSGVPDRFSGSGSGTDFTLTISSLQAEDVAVYYCQHSRELPTFGQGTKLEIKRTVAAPSVFIFPPSDEQLKSGTASVVCLLNNFYPREAKVQWKVDNALQSGNSQESVTEQDSKDSTYSLSSTLTLSKADYEKHKVYACEVTHQGLSSPVTKSFNRGEC
notes: Anti-PD-L1 VHH-G4S fused to the N-terminus of the heavy chain
B7: QP06270279 (bispecific antibody, human IgG1, kappa, L234A L235A)
heavy: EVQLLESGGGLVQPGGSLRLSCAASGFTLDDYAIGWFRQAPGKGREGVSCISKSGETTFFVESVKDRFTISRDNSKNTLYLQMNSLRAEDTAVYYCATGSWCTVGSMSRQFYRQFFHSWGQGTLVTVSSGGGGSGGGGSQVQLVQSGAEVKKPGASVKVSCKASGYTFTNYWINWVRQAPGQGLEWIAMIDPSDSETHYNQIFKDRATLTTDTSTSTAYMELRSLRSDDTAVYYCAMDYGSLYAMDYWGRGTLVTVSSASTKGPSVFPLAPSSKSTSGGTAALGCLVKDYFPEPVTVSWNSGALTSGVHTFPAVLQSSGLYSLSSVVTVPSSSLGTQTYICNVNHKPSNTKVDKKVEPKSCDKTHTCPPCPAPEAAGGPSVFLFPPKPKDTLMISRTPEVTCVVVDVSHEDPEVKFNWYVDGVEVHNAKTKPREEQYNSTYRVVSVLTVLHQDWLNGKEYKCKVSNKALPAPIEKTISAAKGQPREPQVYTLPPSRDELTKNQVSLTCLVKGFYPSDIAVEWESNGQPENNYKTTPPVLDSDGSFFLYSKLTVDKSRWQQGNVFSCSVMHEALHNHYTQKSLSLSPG
light: B6 light
notes: Anti-PD-L1 VHH-(G4S)2 fused to the N-terminus of the heavy chain
B8: QP06280279 (bispecific antibody, human IgG1, kappa, L234A L235A)
heavy: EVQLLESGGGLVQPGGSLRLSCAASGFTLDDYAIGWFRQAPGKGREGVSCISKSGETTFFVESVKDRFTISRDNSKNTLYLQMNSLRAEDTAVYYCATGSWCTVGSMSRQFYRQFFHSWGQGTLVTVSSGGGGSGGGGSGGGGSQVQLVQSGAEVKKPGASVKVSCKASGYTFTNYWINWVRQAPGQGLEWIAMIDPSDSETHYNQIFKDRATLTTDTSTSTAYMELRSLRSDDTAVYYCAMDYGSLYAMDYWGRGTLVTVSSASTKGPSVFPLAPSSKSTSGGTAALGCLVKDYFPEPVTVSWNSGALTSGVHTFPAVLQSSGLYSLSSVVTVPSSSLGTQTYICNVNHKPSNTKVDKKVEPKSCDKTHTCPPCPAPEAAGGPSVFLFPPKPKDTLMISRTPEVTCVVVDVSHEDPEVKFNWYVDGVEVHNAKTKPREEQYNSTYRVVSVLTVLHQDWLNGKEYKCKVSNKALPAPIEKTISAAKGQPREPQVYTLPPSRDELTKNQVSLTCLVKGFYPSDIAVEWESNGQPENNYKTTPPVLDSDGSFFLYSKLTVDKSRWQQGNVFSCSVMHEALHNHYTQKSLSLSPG
light: B6 light
notes: Anti-PD-L1 VHH-(G4S)3 fused to the N-terminus of the heavy chain
B9: QP32700624 (bispecific antibody, human IgG1, kappa, L234A L235A)
heavy: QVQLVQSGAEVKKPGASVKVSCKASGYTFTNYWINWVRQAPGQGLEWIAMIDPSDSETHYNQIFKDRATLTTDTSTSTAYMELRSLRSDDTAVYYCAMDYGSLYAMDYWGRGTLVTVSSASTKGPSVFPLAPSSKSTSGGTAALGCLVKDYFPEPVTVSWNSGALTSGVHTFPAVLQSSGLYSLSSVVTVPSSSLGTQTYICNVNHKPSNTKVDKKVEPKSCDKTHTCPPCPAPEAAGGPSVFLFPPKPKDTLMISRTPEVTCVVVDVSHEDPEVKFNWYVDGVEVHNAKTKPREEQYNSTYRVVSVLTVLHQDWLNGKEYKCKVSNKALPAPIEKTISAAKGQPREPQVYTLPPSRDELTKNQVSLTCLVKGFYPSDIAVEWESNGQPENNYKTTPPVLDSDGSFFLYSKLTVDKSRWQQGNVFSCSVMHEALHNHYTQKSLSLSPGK
light: EVQLLESGGGLVQPGGSLRLSCAASGFTLDDYAIGWFRQAPGKGREGVSCISKSGETTFFVESVKDRFTISRDNSKNTLYLQMNSLRAEDTAVYYCATGSWCTVGSMSRQFYRQFFHSWGQGTLVTVSSGGGGSGGGGSDIVLTQSPDSLAVSLGERATINCRASQSVRSSGYNWIFWYQQKPGQPPKLLIYLASNRDSGVPDRFSGSGSGTDFTLTISSLQAEDVAVYYCQHSRELPTFGQGTKLEIKRTVAAPSVFIFPPSDEQLKSGTASVVCLLNNFYPREAKVQWKVDNALQSGNSQESVTEQDSKDSTYSLSSTLTLSKADYEKHKVYACEVTHQGLSSPVTKSFNRGEC
notes: Anti-PD-L1 VHH-(G4S)2 fused to the N-terminus of the light chain
B10: QP256291 (antibody, human IgG4, V domains shown)
VH: B1 VH
VL: B1 VL with S30G, Y36W, I37L, L58R, E94H
notes: as for B1
B11: QP2561594 (antibody, human IgG4, V domains shown)
VH: B1 VH
VL: B1 VL with E94H, E97D
notes: as for B1
B12: QP2561771 (antibody, human IgG4, V domains shown)
VH: B1 VH
VL: B1 VL with Y36W, L58R
notes: as for B1

Molecular target: T1, QP271 (rhesus SIRPα1-flag-his T-557-28)
Assay: SPR, Biacore

| Kd [nM] | Binder |
| --- | --- |
| 1.74 | B1 |
| 0.1 | B2 |
| 2.41 | B3 |

Molecular target: T2, QP273 (cynoSIRPα2-flag-his T-557-14)
Assay: SPR, Biacore

| Kd [nM] | Binder |
| --- | --- |
| 2.22 | B1 |
| 0.163 | B2 |
| 3.2 | B3 |

Molecular target: T3, QP098 (cyno SIRPα (I7G9Z7) …)
Assay: SPR, Biacore

| Kd [nM] | Binder |
| --- | --- |
| 4.22 | B1 |
| 0.256 | B2 |
| 6.03 | B3 |

molecular target: T5, QP096 (human SIRPα V2 ECD(E31-R370)-flag-his) (human); assay: SPR, Biacore
T5 construct: the construct carries flag and his tags; also called SIRPαV2-Flag-his; Human SIRPα V2 (QP096)
T5 sequence (chain, as listed by the source limits assumed): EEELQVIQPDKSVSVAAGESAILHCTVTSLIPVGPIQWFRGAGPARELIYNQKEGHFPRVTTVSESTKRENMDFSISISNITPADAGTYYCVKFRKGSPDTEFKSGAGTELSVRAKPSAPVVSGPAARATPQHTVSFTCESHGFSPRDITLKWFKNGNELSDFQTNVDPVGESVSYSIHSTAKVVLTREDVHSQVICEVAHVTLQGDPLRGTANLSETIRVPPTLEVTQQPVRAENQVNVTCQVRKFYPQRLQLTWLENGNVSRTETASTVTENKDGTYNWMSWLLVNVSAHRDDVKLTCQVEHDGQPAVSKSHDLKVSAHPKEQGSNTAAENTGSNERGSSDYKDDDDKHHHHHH

| Kd [nM] | Binder |
| --- | --- |
| 0.0891 | B1 |
| 0.176 | B4 |
| 0.0368 | B2 |
| 0.0392 | B3 |

molecular target: T6, QP094 (human SIRPα V1 ECD(E31-R370)-flag-his) (human, UniProt P78324 31-370); assay: SPR, Biacore
T6 construct: the construct carries flag and his tags; also called SIRPαV1-flag-his; SIRPαV1-his (QP094)
T6 sequence (P78324 other isoform, or with tags, fused parts or gaps limits assumed): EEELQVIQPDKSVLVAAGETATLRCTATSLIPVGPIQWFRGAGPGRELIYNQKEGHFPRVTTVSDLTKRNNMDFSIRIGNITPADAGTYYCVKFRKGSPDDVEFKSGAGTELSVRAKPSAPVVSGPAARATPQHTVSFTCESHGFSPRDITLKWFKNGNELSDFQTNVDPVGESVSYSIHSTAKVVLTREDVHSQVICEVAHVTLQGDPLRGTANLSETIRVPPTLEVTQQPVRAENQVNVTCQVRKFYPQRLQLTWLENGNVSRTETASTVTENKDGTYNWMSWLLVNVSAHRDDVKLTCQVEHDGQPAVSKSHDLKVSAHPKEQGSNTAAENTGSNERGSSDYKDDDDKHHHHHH

| Kd [nM] | Binder |
| --- | --- |
| 0.0597 | B1 |
| 0.137 | B4 |
| 0.0288 | B2 |
| 0.085 | B3 |

molecular target: QP003 (PDL1-his); assay: ELISA, QP003 (PDL1-his) captured on coated anti-his, anti-hFc detection; unit from the x axis Log(Conc.(nM))
Sequence (chain, as listed by the source limits assumed): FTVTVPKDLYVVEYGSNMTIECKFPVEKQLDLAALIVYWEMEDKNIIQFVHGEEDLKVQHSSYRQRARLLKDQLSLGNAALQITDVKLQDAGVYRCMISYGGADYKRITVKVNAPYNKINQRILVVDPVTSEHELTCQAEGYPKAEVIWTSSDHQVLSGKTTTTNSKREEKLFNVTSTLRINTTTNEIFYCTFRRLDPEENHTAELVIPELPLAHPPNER

| EC50 [nM] | Binder |
| --- | --- |
| 0.0205 | B5 |
| 0.0176 | B6 |
| 0.0198 | B7 |
| 0.0215 | B8 |
| 0.0134 | B9 |

molecular target: T7, PD-L1-his (QPP09) (human, UniProt Q9NZQ7 19-239, limits assumed); assay: SPR, Biacore 8K
T7 construct: also called human PD-L1; human PD-L1 recombinant protein
T7 sequence (Q9NZQ7 19-239 limits assumed): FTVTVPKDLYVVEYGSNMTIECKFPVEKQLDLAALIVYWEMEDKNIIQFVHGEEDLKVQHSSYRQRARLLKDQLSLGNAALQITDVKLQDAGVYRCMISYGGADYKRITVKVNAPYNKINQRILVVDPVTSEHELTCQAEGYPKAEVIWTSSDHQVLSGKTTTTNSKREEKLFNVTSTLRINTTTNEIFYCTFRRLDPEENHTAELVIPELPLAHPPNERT

| Kd [nM] | koff [s⁻¹] | kon [M⁻¹ s⁻¹] | Binder |
| --- | --- | --- | --- |
| 1.64 | 0.00122 | 744000 | B9 |

molecular target: PD-L1-mouse Fc protein (human, UniProt Q9NZQ7 19-239, limits assumed); assay: blocking ELISA: QP1138 (PD1-FC) coated, PDL1-mouse FC mixed with the antibody, HRP anti-mouse IgG; blocked partner: PD-1; unit from the x axis Log(Conc.(nM))
Sequence (Q9NZQ7 19-239 limits assumed): as above

| IC50 [nM] | Binder |
| --- | --- |
| 0.663 | B9 |

Molecular target: T1, QP271 (rhesus SIRPα1-flag-his T-557-28)
Assay: binding ELISA, antigen coated

| EC50 [ng/mL] | Binder |
| --- | --- |
| 1.17 | B10 |
| 0.967 | B1 |
| 0.807 | B11 |
| 1.13 | B12 |
| 0.555 | B4 |
| 1.21 | B2 |
| 0.936 | B3 |

Molecular target: T2, QP273 (cynoSIRPα2-flag-his T-557-14)
Assay: binding ELISA, antigen coated

| EC50 [ng/mL] | Binder |
| --- | --- |
| 1.62 | B10 |
| 1.03 | B1 |
| 2.35 | B11 |
| 1.22 | B12 |
| 0.921 | B4 |
| 1.68 | B2 |
| 1.43 | B3 |

Molecular target: T3, QP098 (cyno SIRPα (I7G9Z7) …)
Assay: binding ELISA, antigen coated

| EC50 [ng/mL] | Binder |
| --- | --- |
| 1.57 | B10 |
| 1.2 | B1 |
| 1.13 | B11 |
| 1.08 | B12 |
| 0.918 | B4 |
| 1.3 | B2 |
| 1.6 | B3 |

Molecular target: T4, QP100 (cyno SIRPα (G7PGS8) …)
Assay: binding ELISA, antigen coated

| EC50 [ng/mL] | Binder |
| --- | --- |
| 1.18 | B10 |
| 1.23 | B1 |
| 0.983 | B11 |
| 1.13 | B12 |
| 0.758 | B4 |
| 1.01 | B2 |
| 2.01 | B3 |

molecular target: T5, QP096 (human SIRPα V2 …); assay: binding ELISA, antigen coated

| EC50 [ng/mL] | Binder |
| --- | --- |
| 1.43 | B10 |
| 1.11 | B1 |
| 1.05 | B11 |
| 1.13 | B12 |
| 0.862 | B4 |
| 1.36 | B2 |
| 1.17 | B3 |

molecular target: T6, QP094 (human SIRPα V1 …); assay: binding ELISA, antigen coated

| EC50 [ng/mL] | Binder |
| --- | --- |
| 1.86 | B10 |
| 1.05 | B1 |
| 1.12 | B11 |
| 1.15 | B12 |
| 1.07 | B4 |
| 1.61 | B2 |
| 1.37 | B3 |

molecular target: T8, QP002 (biotinylated in the blocking assays, sites not given); assay: blocking ELISA: QP001.2 (CD47) coated, biotin-QP002 (SIRPα-FC) mixed with the antibody, HRP-streptavidin; blocked ligand: CD47; unit from the x axis Log[Conc.(ug/ml)]
T8 construct: also called SIRPα-FC; Biotin-QP002
T8 sequence (SIRPα-Fc fusion chain, as listed by the source): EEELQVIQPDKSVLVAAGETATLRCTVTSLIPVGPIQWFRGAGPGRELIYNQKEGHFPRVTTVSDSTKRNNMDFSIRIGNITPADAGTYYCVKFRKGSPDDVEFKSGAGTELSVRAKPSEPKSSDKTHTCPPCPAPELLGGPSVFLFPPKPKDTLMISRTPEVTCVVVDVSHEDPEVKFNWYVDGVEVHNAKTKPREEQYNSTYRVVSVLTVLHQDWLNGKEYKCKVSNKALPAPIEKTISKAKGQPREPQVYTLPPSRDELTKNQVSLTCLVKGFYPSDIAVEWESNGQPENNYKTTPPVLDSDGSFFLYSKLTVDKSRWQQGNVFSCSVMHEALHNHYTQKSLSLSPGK

| IC50 [µg/mL] | Binder |
| --- | --- |
| 0.0234 | B10 |
| 0.0233 | B12 |
| 0.025 | B2 |

molecular target: T8, QP002; assay: blocking ELISA: QP001.2 (CD47) coated, biotin-QP002 (SIRPα-FC) mixed with the antibody, HRP-streptavidin; blocked ligand: CD47

| IC50 (read off the curve) [µg/mL] | Binder |
| --- | --- |
| ~0.02 | B1 |
| ~0.02 | B11 |
| ~0.02 | B4 |
| ~0.02 | B3 |
